Experimental findings from publication PMC8969154, “Deglutarylation of glutaryl-CoA dehydrogenase by deacylating enzyme SIRT5 promotes lysine oxidation in mice” (The Journal of Biological Chemistry, 2022) are described below.

Data set [1] deals with the molecule itself. In words: native gel or EMSA; BN-PAGE (NativePAGE 4-16% Bis-Tris) of liver mitochondria solubilised in 2% n-dodecyl-β-D-maltoside, 0.5% G-250; immunoblot for GCDH; SIRT5WT and SIRT5KO mice, fed or 24 h fasted; GCDHKO mitochondria as control for the band. In general terms: A gel shift assay detects complexes by their altered migration in electrophoresis.
Data set [2] deals with the molecule itself. Briefly: SEC; Superdex 200 Increase 10/300 GL, 25 mM Hepes pH 7.8, 30 mM NaCl, 0.75 ml/min; column calibrated with standard proteins; comparison of unmodified and modified GCDH told as data not shown.

B1: glutaryl-CoA dehydrogenase (GCDH), endogenous, mouse liver mitochondria (enzyme, mouse (endogenous in liver mitochondria), UniProt Q60759 45-438, looked up)
chain: RPVFDWKDPLILEEQLTADEKLIRDTFRNYCQERLMSRILLANRNEVFHRDIVYEMGELGVLGPTIKGYGCAGVSSVAYGLLTRELERVDSGYRSMMSVQSSLVMHPIYTYGSEEQRQKYLPGLAKGELLGCFGLTEPNHGSDPGGMETRARHNPSNQSYTLSGTKTWITNSPVADLFIVWARCEDNCIRGFILEKGMRGLSAPRIEGKFSLRASATGMIIMDSVEVPEENVLPNVSSLAGPFGCLNTARYGITWGVLGAAEFCLHTARQYALDRIQFGVPLARNQLVQKKLADMLTEITLGLHACLQLGRLKDQDKATPEMVSMLKRNNCGKALDIARQARDILGGNGISDEYHVIRHAMNLEAVNTYEGTHDIHALILGRAITGIQAFTVGK
notes: glutaryl-CoA dehydrogenase, mouse, endogenous in liver mitochondria of SIRT5WT and SIRT5KO mice (GCDHKO mitochondria used to identify the band); Glutarylation state differs with genotype and feeding state (higher in starved SIRT5KO liver); also called GCDH tetramer; source: endogenous, mouse liver mitochondria solubilised in 2% n-dodecyl-β-D-maltoside
Turning to B1, in data set [1], the “stoichiometry N” value worked out at 4.

B2: human recombinant GCDH protein (hGCDH-6XHIS), unmodified (enzyme, UniProt Q92947 45-438, looked up)
chain: RPEFDWQDPLVLEEQLTTDEILIRDTFRTYCQERLMPRILLANRNEVFHREIISEMGELGVLGPTIKGYGCAGVSSVAYGLLARELERVDSGYRSAMSVQSSLVMHPIYAYGSEEQRQKYLPQLAKGELLGCFGLTEPNSGSDPSSMETRAHYNSSNKSYTLNGTKTWITNSPMADLFVVWARCEDGCIRGFLLEKGMRGLSAPRIQGKFSLRASATGMIIMDGVEVPEENVLPGASSLGGPFGCLNNARYGIAWGVLGASEFCLHTARQYALDRMQFGVPLARNQLIQKKLADMLTEITLGLHACLQLGRLKDQDKAAPEMVSLLKRNNCGKALDIARQARDMLGGNGISDEYHVIRHAMNLEAVNTYEGTHDIHALILGRAITGIQAFTASK
notes: hGCDH-6XHIS 'modified from UniProtKB - Q92947'; printed residue numbers count on the full-length human GCDH protein; also called recombinant human GCDH; unmodified GCDH
B2: in data set [2], the “stoichiometry N” value was determined as 4.

B3: chemically succinylated human recombinant GCDH (succinyl-GCDH) (enzyme, UniProt Q92947 45-438, looked up)
chain: B2 chain
modifications: succinyl-lysine by chemical succinylation: 11 sites found (shown in Fig. S3D, not given)
notes: as the chain of m2, chemically succinylated; printed residue numbers count on the full-length human GCDH protein; also called succinylated GCDH; modified GCDH
B3: in data set [2], the “stoichiometry N” value was 4.

B4: chemically glutarylated human recombinant GCDH (glutaryl-GCDH) (enzyme, UniProt Q92947 45-438, looked up)
chain: B2 chain
modifications: glutaryl-lysine by chemical glutarylation: 10 sites found; heavily glutarylated K163, K170, K202, K240, K253, K357, K371, K377 (numbers of full-length human GCDH)
notes: as the chain of m2, chemically glutarylated; printed residue numbers count on the full-length human GCDH protein; also called glutarylated GCDH; modified GCDH
Turning to B4, the “stoichiometry N” value in data set [2] is 4.

Broadly, the stoichiometry N is the number of molecules, sites or subunits per partner or assembly.
